The values that follow come from paper PMC7948448.

The target of this experiment is Bmh1 (UniProt P29311). The experiment can be described thus: Strep-Bmh1 pull-down, stained SDS-PAGE. Particulars: reference: unmodified Hst2.

Consider Hst2 (from UniProt P53686) Hst2 S324ph, for which the “binding against the reference” value (sites S324) is “gained”.

Regarding Hst2 (from UniProt P53686) Hst2 S320ph, for the setting “sites S320”, the “binding against the reference” value is reported as “gained”.
